Source: US20190125827A1 (UNIVERSITY OF OTTAWA, published 2019)

Target: T1, endogenous Vps11 (HOPS subunit) (rat, UniProt D3ZTB4 2-941)
T1 construct: whole, on cells; Endogenous protein detected in situ with an anti-Vps11 antibody; also called vacuolar protein sorting-associated protein 11 homolog
T1 sequence: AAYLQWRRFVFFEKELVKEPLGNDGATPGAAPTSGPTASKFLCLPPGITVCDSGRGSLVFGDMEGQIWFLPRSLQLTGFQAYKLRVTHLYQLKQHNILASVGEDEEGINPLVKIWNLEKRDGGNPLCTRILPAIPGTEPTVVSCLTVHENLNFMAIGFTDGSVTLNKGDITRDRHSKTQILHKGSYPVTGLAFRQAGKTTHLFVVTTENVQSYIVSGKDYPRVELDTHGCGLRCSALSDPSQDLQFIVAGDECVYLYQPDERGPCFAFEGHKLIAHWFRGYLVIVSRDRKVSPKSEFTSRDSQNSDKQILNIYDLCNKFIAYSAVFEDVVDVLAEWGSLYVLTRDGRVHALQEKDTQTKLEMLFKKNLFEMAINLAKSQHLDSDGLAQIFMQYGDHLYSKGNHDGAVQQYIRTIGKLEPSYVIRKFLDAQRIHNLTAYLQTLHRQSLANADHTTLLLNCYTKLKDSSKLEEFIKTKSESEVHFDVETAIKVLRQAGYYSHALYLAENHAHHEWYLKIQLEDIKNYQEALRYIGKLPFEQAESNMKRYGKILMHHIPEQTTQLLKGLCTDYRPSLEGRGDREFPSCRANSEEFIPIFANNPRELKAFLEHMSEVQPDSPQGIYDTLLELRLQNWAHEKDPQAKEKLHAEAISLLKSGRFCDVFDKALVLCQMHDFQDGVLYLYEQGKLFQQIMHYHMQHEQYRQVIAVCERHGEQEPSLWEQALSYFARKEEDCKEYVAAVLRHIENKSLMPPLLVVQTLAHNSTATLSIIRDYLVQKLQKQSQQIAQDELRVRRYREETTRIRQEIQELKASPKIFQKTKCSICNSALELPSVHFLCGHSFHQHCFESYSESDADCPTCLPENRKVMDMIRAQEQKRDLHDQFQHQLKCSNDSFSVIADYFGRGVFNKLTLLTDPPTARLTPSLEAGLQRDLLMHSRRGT
Test: proximity ligation assay (in situ co-IP) in transfected hepatic cells, baseline (OA) and 1 h post-EPA
Procedure: The A18-C3 cells were cultured in DMEM (Invitrogen) supplemented with fetal bovine serum (20%), penicillin (50 U/mL), streptomycin (50 μg/mL, Invitrogen) and Geneticin/G418 (500 μg/mL, Gibco) at 37° C. in 5% CO₂. Transfection was conducted when cells were 60-70% confluence. Appropriate plasmids were mixed with FuGENE HP extreme reagent (Roche Diagnostic), according to manufacturer's protocol, and incubated for 30 min. […] In silencing experiments, appropriate siRNAs were transfected into cells using the X-treme GENE siRNA regent (Roche Diagnostic).
One h post-EPA treatment, the cells were fixed, permeabilized and incubated with an anti-RFP antibody together with proper anti-Vps11, -Vps39, and -Vps41 antibodies. The proximity ligation was achieved using the Duolink secondary PLA probes (Olink AB) that detects substrate formation between the two antibodies as described previously³⁸.

binding result: no binding
B1: mCherry-tagged Arl8b^T34N (other)
chain: MLALISRLLDWFRSLFWKEEMELTLVGLQYSGKNTFVNVIASGQFSEDMIPTVGFNMRKVTKGNVTIKIWDIGGQPRFRSMWERYCRGVNAIVYMIDAADREKIEASRNELHNLLDKPQLQGIPVLVLGNKRDLPNALDEKQLIEKMNLSAIQDREICCYSISCKEKDNIDITLQWLIQHSKSRRS
notes: Fusion protein expressed by plasmid transfection inside McA-RH7777 (A18-C3) hepatic cells and detected in situ with an anti-RFP antibody; also called ^mCherryArl8b^T34N; RFP-tagged Arl8b^T34N; not shown: C-terminal mCherry tag and its RDP linker
